Patent publication US20180312579A1 (Genentech, published 2018)

T1: recombinant human RSPO3 (human, UniProt Q9BXY4 22-272)
T1 sequence: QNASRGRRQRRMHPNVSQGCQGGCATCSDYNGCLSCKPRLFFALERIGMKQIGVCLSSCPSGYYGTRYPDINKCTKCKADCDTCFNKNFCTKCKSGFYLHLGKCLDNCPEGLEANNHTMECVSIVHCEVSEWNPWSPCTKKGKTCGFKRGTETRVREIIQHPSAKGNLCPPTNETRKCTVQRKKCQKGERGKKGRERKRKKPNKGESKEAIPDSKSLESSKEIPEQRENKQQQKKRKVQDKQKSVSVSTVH

T2: mouse RSPO3 (mouse, UniProt Q2TJ95 22-277, limits assumed)
T2 sequence (looked up): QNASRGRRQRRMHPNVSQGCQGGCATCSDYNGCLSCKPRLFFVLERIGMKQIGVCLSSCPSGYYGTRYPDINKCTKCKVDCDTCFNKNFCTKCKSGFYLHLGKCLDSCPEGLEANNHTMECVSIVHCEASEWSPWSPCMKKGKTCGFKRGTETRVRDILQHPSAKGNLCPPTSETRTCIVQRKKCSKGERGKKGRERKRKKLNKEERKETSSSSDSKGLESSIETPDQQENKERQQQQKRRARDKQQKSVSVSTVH

T3: cynomolgus RSPO3 (cynomolgus, UniProt A0A2K5UTQ7 22-273)
T3 sequence: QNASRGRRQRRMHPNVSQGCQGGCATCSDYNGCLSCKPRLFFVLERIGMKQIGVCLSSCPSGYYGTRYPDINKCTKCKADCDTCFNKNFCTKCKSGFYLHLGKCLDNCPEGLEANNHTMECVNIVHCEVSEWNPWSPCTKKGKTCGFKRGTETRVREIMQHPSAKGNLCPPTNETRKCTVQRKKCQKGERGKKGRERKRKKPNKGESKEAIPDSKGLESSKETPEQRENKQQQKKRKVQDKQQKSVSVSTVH

T4: human RSPO3 with C-terminal HA tag, stably expressed in 293 cells (human, UniProt Q9BXY4 22-272)
T4 construct: Whole open reading frame expressed in HEK-293 cells (high, medium, low); FFPE pellets; also called hRSPO3; RSPO3 Hi
T4 sequence: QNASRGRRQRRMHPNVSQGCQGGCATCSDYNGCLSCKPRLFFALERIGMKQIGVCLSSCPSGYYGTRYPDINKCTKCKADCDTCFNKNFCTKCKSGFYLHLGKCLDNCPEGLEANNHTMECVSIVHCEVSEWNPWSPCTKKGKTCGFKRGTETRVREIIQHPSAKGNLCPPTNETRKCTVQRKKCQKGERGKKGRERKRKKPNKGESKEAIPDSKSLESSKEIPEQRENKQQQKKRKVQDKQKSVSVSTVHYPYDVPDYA

T5: FLAG-tagged human RSPO3 (Genentech) (human, UniProt Q9BXY4 22-272)
T5 construct: also called hRSPO3; RSPO3 coated plates; not shown: FLAG tag
T5 sequence: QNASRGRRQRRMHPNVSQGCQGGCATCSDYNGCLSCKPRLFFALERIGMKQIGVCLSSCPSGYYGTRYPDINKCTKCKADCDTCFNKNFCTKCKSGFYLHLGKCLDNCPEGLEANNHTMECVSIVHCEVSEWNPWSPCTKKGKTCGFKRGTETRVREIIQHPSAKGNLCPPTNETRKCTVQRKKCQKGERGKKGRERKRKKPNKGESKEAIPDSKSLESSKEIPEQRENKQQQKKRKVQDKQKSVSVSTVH


Assays:
recombinant human RSPO3 [1] = molecular target: T1, recombinant human RSPO3; experiment: cell-based or functional assay
recombinant human RSPO2 [2] = molecular target: T6, recombinant human RSPO2 (human, UniProt Q6UXX9 22-243); experiment: cell-based or functional assay
T6 sequence (Q6UXX9 22-243): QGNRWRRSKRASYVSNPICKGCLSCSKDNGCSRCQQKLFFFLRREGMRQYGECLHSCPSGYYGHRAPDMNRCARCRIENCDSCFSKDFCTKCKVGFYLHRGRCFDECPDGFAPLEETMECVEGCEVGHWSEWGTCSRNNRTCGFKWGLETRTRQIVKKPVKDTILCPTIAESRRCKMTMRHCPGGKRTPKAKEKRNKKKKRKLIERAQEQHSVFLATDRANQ

cynomolgus RSPO2 [3] = molecular target: T7, cynomolgus RSPO2 (cynomolgus, UniProt G7PCH9 22-243); experiment: cell-based or functional assay
T7 sequence (G7PCH9 entry or part of it): as the sequence (Q6UXX9 22-243) above, with V160A, L165P, T178A counted along it

mouse RSPO3 [4] = molecular target: T2, mouse RSPO3; experiment: cell-based or functional assay
mouse RSPO2 [5] = molecular target: T8, mouse RSPO2 (mouse, UniProt Q8BFU0 22-205, limits assumed); experiment: cell-based or functional assay
T8 sequence (Q8BFU0 22-205 limits assumed): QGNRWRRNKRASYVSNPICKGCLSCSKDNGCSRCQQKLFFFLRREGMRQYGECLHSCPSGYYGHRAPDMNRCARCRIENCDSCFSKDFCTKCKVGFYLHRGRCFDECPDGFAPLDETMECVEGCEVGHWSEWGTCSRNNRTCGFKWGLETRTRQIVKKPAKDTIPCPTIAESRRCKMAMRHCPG

cynomolgus RSPO3 [6] = molecular target: T3, cynomolgus RSPO3; experiment: cell-based or functional assay
[7] = molecular target: T4, human RSPO3 with C-terminal HA tag, …; experiment: IHC, FFPE 293 cell pellet, RSPO3 Hi; - = not significant staining
recombinant human RSPO2 [8] = molecular target: T6, recombinant human RSPO2; experiment: SPR (Biacore) with the Fab; table row RSPO2, Affinity (nM) Fab
Description: (§1) For kinetic measurements, two-fold serial dilutions of anti-RSPO Fabs were injected in HBS-P buffer (0.01M HEPES pH 7.4, 0.15M NaCl, 0.005% surfactant P20) at 25° C. with a flow rate of 30 μl/min. Association rates (kₒₙ) and dissociation rates (koff) were calculated using a simple one-to-one Langmuir binding model (BIAcore Evaluation Software version 3.2). The equilibrium dissociation constant (KD) was calculated as the ratio koff/kₒₙ.
(§2) Surface plasmon resonance was used to confirm binding specificities and affinities to human, mouse, and cynomolgus RSPOs. Fab fragments from antibody clones were digested, purified, and then assayed using a BIAcore™-2000 instrument for binding to recombinant proteins. Antibodies fell into three groups: those specific to RSPO2, those specific to RSPO3, and those with some degree of cross-reactivity (FIG. 5).

mouse RSPO2 [9] = molecular target: T8, mouse RSPO2; experiment: as above
Description: as §1, §2

recombinant human RSPO3 [10] = molecular target: T1, recombinant human RSPO3; experiment: SPR (Biacore) with the Fab; table row RSPO3, Affinity (nM) Fab
Description: as §1, §2

mouse RSPO3 [11] = molecular target: T2, mouse RSPO3; experiment: as above
Description: as §1, §2

cynomolgus RSPO3 [12] = molecular target: T3, cynomolgus RSPO3; experiment: as above
Description: as §1, §2

cynomolgus RSPO2 [13] = molecular target: T7, cynomolgus RSPO2; experiment: SPR (Biacore) with the Fab; table row RSPO2, Affinity (nM) Fab
Description: as §1, §2

[14] = molecular target: T9, FLAG-tagged human RSPO2 (Genentech) (human, UniProt Q6UXX9 22-243); experiment: competitive binding ELISA: titrated against biotinylated RNF43-Flag (RNF43-ECD) binding to plate-coated hRSPO2; signal = bound RNF43, normalized OD
T9 construct: also called hRSPO2; RSPO2 coated plates; not shown: FLAG tag
T9 sequence (Q6UXX9 22-243): as the sequence (Q6UXX9 22-243) above

[15] = molecular target: T5, FLAG-tagged human RSPO3 (Genentech); experiment: competitive binding ELISA: titrated against biotinylated RNF43-Flag (RNF43-ECD) binding to plate-coated hRSPO3; signal = bound RNF43, normalized OD

Kd (recombinant human RSPO2 [8]) [nM] | binding result (mouse RSPO2 [9]) | binding result (recombinant human RSPO3 [10]) | binding result (mouse RSPO3 [11]) | binding result (cynomolgus RSPO3 [12]) | Kd (cynomolgus RSPO2 [13]) [nM] | Kd (mouse RSPO2 [9]) [nM] | Kd (recombinant human RSPO3 [10]) [nM] | Kd (mouse RSPO3 [11]) [nM] | Kd (cynomolgus RSPO3 [12]) [nM] | Binder | other results
– | – | – | – | – | – | – | – | – | – | 11F11 (antibody, V domains shown, also called monoclonal antibody 11F11) VH: QVQLQQSGPQLVKPGFSVKFSCKASGITFTEYYVTWVKQRAGQGLEWVGDIDPENGDTDYNQKFQGKATITADKSSSTAYMELSSLTSEDSAVYYCATGYDYAFDSWGQGTLVTVSS VL: QPVLTQSPSASASLGASVKLTCTLSSQHSSYGITWLQQHPDKAPKCVMYLRSDGSHSKGDGIPDRFSGSSSGAHRYLSISNVQPEDEAIYFCVTYDSTVGVFGSGTQLTVP | IC50, WNT luciferase reporter, bivalent antibody (recombinant human RSPO3 [1]): > 500 nM; IC50, WNT luciferase reporter, bivalent antibody (recombinant human RSPO2 [2]): 0.179 nM; IC50, WNT luciferase reporter, bivalent antibody (cynomolgus RSPO2 [3]): 1.9 nM; IC50, WNT luciferase reporter, bivalent antibody (mouse RSPO3 [4]): > 500 nM; IC50, WNT luciferase reporter, bivalent antibody (mouse RSPO2 [5]): > 500 nM; IC50, WNT luciferase reporter, bivalent antibody (cynomolgus RSPO3 [6]): > 500 nM; binding result [7]: no binding
63 | no binding | no binding | no binding | no binding | – | – | – | – | – | 11F11 (Fab, V domains shown, also called Fab of 11F11; 11F11 Fab) VH: QVQLQQSGPQLVKPGFSVKFSCKASGITFTEYYVTWVKQRAGQGLEWVGDIDPENGDTDYNQKFQGKATITADKSSSTAYMELSSLTSEDSAVYYCATGYDYAFDSWGQGTLVTVSS VL: QPVLTQSPSASASLGASVKLTCTLSSQHSSYGITWLQQHPDKAPKCVMYLRSDGSHSKGDGIPDRFSGSSSGAHRYLSISNVQPEDEAIYFCVTYDSTVGVFGSGTQLTVP | –
2.9 | – | no binding | no binding | no binding | 1.4 | 3.6 | – | – | – | 1A1 (Fab, V domains shown, also called Fab of 1A1; 1A1 Fab) VH: EVQLVESGGGLVKPEGSLKLSCVASGFTFSDYFMSWVRQAPGQGLEWVAHIYTKTYNYATYYSGSVKGRFSISRDDSRNMVYLQMNNLRTEDTATYYCTTDEDWYFDFWGQGTQVTVSS VL: QPVLTQSPSVSASLGASVKLTCTLSSQHSTNYIEWYQQHPDKSPKFLMQVRDGSHSKGDGTPDRFSGSSSGAHRYLSISNLQLEDEAIYYCGLSDVSLYLFGSGTQLTLL | –
– | – | – | – | – | – | – | – | – | – | RNF43 (receptor, kept apart from the biotinylated tracer m34; not shown: FLAG tag and any linker to it) GFGRTGLVLAAAVESERSAEQKAIIRVIPLKMDPTGKLNLTLEGVFAGVAEITPAEGKLMQSHPLYLCNASDDDNLEPGFISIVKLESPRRAPRPCLSLASKARMAGERGASAVLFDITEDRAAAEQLQQPLGLTWPVVLIWGNDAEKLMEFVYKNQKAHVRIELKEPPAWPDY | IC50 (read off the curve) [14]: ~0.2 µg/mL; IC50 (read off the curve) [15]: ~0.5 µg/mL
80 | – | – | – | – | 62 | 66 | 0.7 | 1.42 | 2.43 | Fab 26E11 (Fab, V domains shown, Fab expressed in E. coli for crystallography; also called 26E11 Fab) VH: EVQLQESGPSLVKPSQTLSLTCSVTGDSITSGYWSWIRKFPGNKLEFMGYISFSGKTYYIPSLKSRVSITRDTSKNQYYLQLNSVTTEDTATYYCATYHGYGGPWFAYWGQGTLVTVSS VL: DIKMTQSPSSMYASLGERVTITCKASQDIDSYLSWFQQKPGKSPKTLIYLTNRLIDGVPSRFSGSGSGQDYSLTINSLEYEDMGIYYCLQYDEFPVTFGAGTRLEIK | –
6.3 | – | no binding | no binding | no binding | 11 | 5.5 | – | – | – | 36D2 (Fab, V domains shown, also called Fab of 36D2; 36D2 Fab) VH: QIQLQESGPGLVKPSQSLSLTCSVTGNSITSSDWSWIRQFPGKKLEWMGYMNYGGGTYYNPSLENRISITRDTSKNQFFLHLKSVTTEDTATYYCARERPHPYAYFDVWGQGIQVTVSS VL: ELVFTQPQSVSGSLGQEISISCTRSSGNIGSNYVSWYQQQSSNKPRLLIYKFDQRPSGVPDRFSGSTDSSSNSGILTISRLQPEDEGDYYCLSGYDKYVFGSGTQLTLL | –
– | no binding | – | – | – | – | – | 10.6 | 98 | 39 | 5E11 (Fab, V domains shown, also called Fab of 5E11; 5E11 Fab) VH: QVQLKQSGPGLVQPSQSLSITCTVSGFSLSSYAVHWVRQSPGEGLEWLGVIWSGGSTDYNAAFISRMSITKDNSKSQVFFKMNSLQADDTAIYFCARNDGYYYFDYWGQGTTLTVSS VL: DIVMTQSTSSLSASLGDRVTISCRASQDISNYLNWYQQKPDGTVKLLIYYTSRLHSGVPSRFSGSGSGTDYSLTISNLEKEDVATYFCQHGDTLPPTFGGGTKLEIK | binding result (cynomolgus RSPO2 [13]): no binding
– | no binding | – | – | – | – | – | 17 | 63 | 70 | 5C2 (Fab, V domains shown, also called Fab of 5C2; 5C2 Fab) VH: EVQLQESGPGLVAPSQSLSITCTVSGFSLTSYGVHWVRQPPGKGLEWLGVIWTGGSTNYNSALMSRLSISKDNSKSQVFLKMNSLQTDDTAMYYCARVDGYYYFDYWGQGTTLTVSS VL: DIVMTQSTSSLSASLGDRVTISCRASQDISNYLNWYQQKPDGTVKLLIYYTSRLHSGVPSRFSGSGSGTDYSLTISNLEPEDIATYFCQQGDTLPPTFGGGTKLEIK | binding result (cynomolgus RSPO2 [13]): no binding
